In publication PMC8646042:

Target: T1, endogenous IRF3 (human (endogenous in 293T)), Q14653
T1 chain: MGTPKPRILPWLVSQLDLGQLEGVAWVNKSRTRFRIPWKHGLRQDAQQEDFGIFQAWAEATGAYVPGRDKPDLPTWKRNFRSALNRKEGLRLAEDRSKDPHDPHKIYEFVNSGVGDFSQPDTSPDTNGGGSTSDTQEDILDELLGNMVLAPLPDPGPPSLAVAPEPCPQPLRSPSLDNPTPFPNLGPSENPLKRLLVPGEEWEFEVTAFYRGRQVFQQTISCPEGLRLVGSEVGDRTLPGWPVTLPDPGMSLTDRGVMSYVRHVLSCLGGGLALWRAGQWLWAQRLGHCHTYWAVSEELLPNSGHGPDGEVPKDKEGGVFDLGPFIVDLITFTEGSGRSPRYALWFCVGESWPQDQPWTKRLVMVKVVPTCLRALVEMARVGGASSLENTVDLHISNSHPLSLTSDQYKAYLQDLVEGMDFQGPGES
Experiment: native gel or EMSA; Native PAGE of lysates of 293T or MCF7 cells and western blot with anti-IRF3; SeV infection for 12 h or MAVS transfection; N4BP3 overexpressed, knocked down or knocked out
Details: remark: other sources report otherwise

B1: endogenous IRF3, Q14653 1-427 (natural protein)
chain: MGTPKPRILPWLVSQLDLGQLEGVAWVNKSRTRFRIPWKHGLRQDAQQEDFGIFQAWAEATGAYVPGRDKPDLPTWKRNFRSALNRKEGLRLAEDRSKDPHDPHKIYEFVNSGVGDFSQPDTSPDTNGGGSTSDTQEDILDELLGNMVLAPLPDPGPPSLAVAPEPCPQPLRSPSLDNPTPFPNLGPSENPLKRLLVPGEEWEFEVTAFYRGRQVFQQTISCPEGLRLVGSEVGDRTLPGWPVTLPDPGMSLTDRGVMSYVRHVLSCLGGGLALWRAGQWLWAQRLGHCHTYWAVSEELLPNSGHGPDGEVPKDKEGGVFDLGPFIVDLITFTEGSGRSPRYALWFCVGESWPQDQPWTKRLVMVKVVPTCLRALVEMARVGGASSLENTVDLHISNSHPLSLTSDQYKAYLQDLVEGMDFQGPGES
stoichiometry N: 2
